Here are results for 21 sequences from a protein production outcome set (Wang et al. 2014).

The nature of the data set: label from the status in PepcDB records.

With “MTMPHAFSRQPATHRSGRFPRSRALLLASLLAAGLASLPAWAAAPATRTAQAAPEGSSRAAVQLEKSRPRGNLLATDRTDLPAVPLSEDIMYRVLASEVSLQRGLVEPAYRTYLGLAQDTRDPRFAQRATEIAFLTRSPSQALTAARLWVELAPTSMPARQVQQLLMVATGQWSEVEPMLQAQLNKVSPGQRAEAILQLQQQMSKSNDPAGAVSALQRLTTHDAQRPETHLALARAKVVAKDNTGALSELDTALKLRPGYEDAAILAAELRADSDPDAAISGLRTFLKAAPASIDGHLALARMYLVRNQNDQARAEFEALRKIAPTDPRIPLALGLLNLQQRQYDSAEQYLKEYVAQAAKSPSLSPEPGYQGLAQVAEEKRDYAGAITWLDKIAGASNGDGDGQVALAAGIKRAQLLGKLRRIDEAQQAFDELIADTEDVPDGPRRQALMDGIRQAEVGMLMDAKAYGRARARVNDLLRTSPDSVEYTYQLSMLEEHDGHYDNMETLLRKVIDLRPGQAIGYNALGYSLADRNIRLQEAQELLEKAVSLAPDDPYIADSLGWVKYRRGDLPAATDILRKAWAAAPQAEIGAHLGEVLWQSGKQDDARKVWTEAAKLDINDTTLRETLHRFSQPLPDAPTSAN”, the protein production result is recorded as “failed”. For the sequence “MTMSLIAGVAAFVLTVLAMPHFITYYKIKKIGGQQMHEDVKQHLAKAGTPTMGGTVFLVVAILISLIFNFHVFTEGHPAYGATAGILFVILIYGIIGFLDDFLKIFHQINEGLKPWQKMALQIVAGLLFYFIHVLPSGTNSLAIGGLTIQLGVFYVLFVLFWIVGFSNAVNLTDGIDGLASVSVVISLIAYGIIAFVKGELAILTIIITMIGALLGFFVFNHKPAKVFMGDVGSLSLGAMLAVISIALRVEWTLLLIGVVYVLETASVMLQVSYFKYTKRKYGEGRRIFRMTPFHHHLELGGISGKGEKWSEWKVDAFLWTIGALASSITLWMVLGNVMK”, the protein production result is given as “failed”. For “MTNDFKKEKKEDYFVNLKAISTEVLQEKVQDNAWVIVDTRLNDAYNGWKLDGVKRGGHIKGAVDFSANWLSVYSDRKDEVLEQALKTKRIDLDKNIVLYDANGKDALVVADYLSKKGYKYLYKYDIKQWADDENLPMERYKNYQMIVPLEHHHHHH”, the protein production entry is “not failed”. Take “MTNGGGGMSSGEGFRRRSSGEGFPAREFRWWVSGDRVFPRGFFGEGVQVGVPTVVSGEGVPAKVPGGDFSGKKVPAVVFRRVSSSDGGGRGSGGGGGGGSGLGW”: the protein production result is “failed”.

Regarding “MTNGKNPKEYSRQYVDEIAERADVVGYAPAIEYSFDRYTNNPVHEKIATIHDGEKLGDDAHVEVVVVDFFKKSDKGDKCYATKRTYAVIPDSDGDGTDALVYSGSLKSVSDIEEGYVTETDFTSKTVTYAKGDYAATELEHHHHHH”, the protein production entry is listed as “failed”.

Consider “MTNIQALFERIAPLYDRLNDQLSFGLHHVWKQMAVDWLELPQGATALDLCCGTGDLTRLLARRVGRQGRVVGLDFAAAPLAIARQRSDHYPQIEWLQGDALAVPFAPQTFQGITIGYGLRNVVDIPQALREMFRLLVPGGRAAILDFSHPQTSALEQFQQWYLQQWVVPTARHYGLAAEYDYLWPSIQAFPTPPTLCALIQQAGFERVKHYPLLGGLMAITVAQKLEHHHHHH”, for which the protein production entry is given as “failed”.

For the sequence “MTNKGYFWVVASLVLASAAQVLMKSGMLALPSISMTHWPSLSTLMAGWPVVAVLVGIICYGLSMVCWFMVLRYLPLSRAYPLISLSYAVVYLAAVFLPWLNEPMSLRKNLGVLIILLGVWLVSRDAQATK”, the protein production entry is on record as “failed”.

On to “MTNLGTAKNFWDATLYQDKHSFVWQYGEDLLQLLNPQPGEFILDLGCGTGQLTEKIAQSGAEVLGTDNAATMIEKARQNYPHLHFDVADARNFRVDKPLDAVFSNAMLHWVKEPEAAIASIHQALKSGGRFVAEFGGKGNIKYILEALYNALETLGIHNPQALNPWYFPSIGEYVNILEKQGFDVTYAALFNRPTTLAEGEFGMANWIQMFASAFLVGLTPDQQVQLIRKVEATLQDKLYHQESWTADYRRIRIVSIKAQ”, for which the protein production entry is listed as “not failed”. Take “MTNLRKILLIPALIVVSVSSFFSCGVDRWPEYAHLTELDTWMYDIMQQNYLWYQYMPGYDEVNLFQDPATFLSKAKWDKDSYSFVDSVLEAPLPTYGFDYSLVKSQDNDTAYNALITYVIPESPAEKAGLQRGDWIMKVDTSYISKKYETQLLQGTIARELSMGVWKEVEEEPEEGEEVPEEPVMVYKVVPNGVTLDLGAAQSIEDQPVHKYKILTLDNGAKVGYLMYNSFTAGTNNDPEKYNNELRKVSTIFQEANVQATILDLRYNEGGSLDCVQLLATILVPNARMGTPMAYLEYNDKNLDKDATINFDQEVLKTGVNLNQNTLVAITSGTTAGAAEMLLTSLYKEEQAPNIIVMGSASKGQTVATEQFINETYRWSVNPVVCTVYNSDHDAGEDAFVLVPSDKFKISETSINGTTDYSQFLPFGNPKERMLSIAIQTLEGTYPPKDEDKEEETRSTKSIKIEKSVSSPASRRFAGGLRIK”: the protein production result was “failed”. As for “MTNLVDKAAHSFATQNVVFQTLATASGKLVGVVTLNVEKALNALDLDMVRAMTVQLNLWKKDPLIACVVLDGSGEKAFCAGGDVRALYHASVAAKGQVTEVAKVFFEEEYRLDYLLHTYGKPVLVWGDGIVMGGGLGLMAGASHKVVTETSRIAMPEVTIGLYPDVGGSYFLNRMPGKMGLFLGLTAYHMNAADACYVGLADHYLNRDDKELMFDAMATLDWSDSPALNHQRLDTMINELSNQVDIPKGDSVLAESQEMIDRLMAGSLTDIVTRMSTLSTDEAWLSKACATMLAGSPISWHLAYIQTQLGTKLSLAQCFKWELTVSVNVCAKGDFCEGVRALLIDKDKQPKWQFADVQSVPNSVIEDILTSPWGEEHPLSQLS”, the entry is “not failed”; as for “MTNNQKLVGRHKRLAFMKVGTEGTYDRITGFTSLIEGKEAKEYARQYIDEATERTDVVGYATGIEYAFDRYTNNAVHEKIANITDDELLGVDAQVEIVSVDVFEEKAGGKYPARKRTYSVVPDTTGDGTDALIYSGNFKAVSEIVKGYCTTTDKWQTCTFVEGEIPAEALEHHHHHH”, “not failed”; as for “MTNPEATDKEGKNYALFIGDTVLVGEQSPASVMTPSKKKIKNVGIFIKDDSDEEDVDDKKTAKEDQGTEILGRSKRNAVLESKLRNEINTEEKRKEHQRELAQQLNERAKDRLARQGNSKEVEKVRKNTVSYKSISQMPREPEVKELKLYVDKKYETV”, “failed”.

In the case of “MTNPETASDNSRDLVLVRRFDAPCDLVFRAWTDPKALAQWCGPHGFKAVGDRLEAWPGGRHRACLIAPDGEEHWVGGKYLEVEPPHRLVFTHAWETGAGETSPETIVTITLRESDGGTEMTFRQSGFASVSSLEGHESGWSQSFERLSSFLGTGSEGLNHA”, the protein production result was “failed”. Under “MTNQEQSGDGGRLAPRPVERPPVDPAAQRTFGRPAGVEGSFLGAGQYQDQGEYAPKDQPPDPVLAEAFGRPRGTSETLQRHPTDAGALEAERLGDEDVTDDPWRDPSAPVALGTPAQPPPPPVYVNAPTGKLGLREVLFGGRVSWIALLTLALVAVLIAFVGGWVGQKTAGTVQAFTTSKVTLETGDHPDPDAGRFEQVAAAVADSVVTIEAKSKTEGSQGSGVVVDGKGYIVTNNHVISEAATKPADFQITVVFNDGKEVPANLVGRDPKTDLAVLKVDNVDNLTVAKLGDSEKIRVGEEVIAAGAPLGLRSTVTHGIVSALHRPVPLSGDGSDTDTVIDGVQTDASINHGNSGGPLINMNAEVIGINTAGKSLSDSASGLGFAIPVNEVKEVVETLVKDGKVAHPTLLVNAVTVSNSVASGAQIKNVVENGPAGKAGMLENDVVVKVGDRKVADADEFVVAVRQLKIGQEAPIEVVRDGRPLTLMVTPIGDDQKAQ” stands “failed”. Regarding “MTNQRTMVVGYDGSEESNLAVQWAAKHAILRDCSLHVVHCSLWVLLSHNRGPVPGVADSGLERAAQKVLEEGMALAKETVPDLEVRTTLLHGMPRDHLAHVSVGAEMLVLGSRGLGGFMGLLVGSVSLEMAATAECPVVVIRADDHPEGPVLLAVDDAGSPAALEDACDFAAATGADLMIVHVLHEPVGYRRLREPVEAYPEAEALLDSVLSQARHKAPGIAVTGELLVDASFSKAIVKASQGARITVLGTKGHGLIKGTIGSTAHAVLHHAHSPVLVSRRRATSEVA”, the protein production entry was “failed”. On to “MTNVLYQHGTLGTLMAGLLEGTATINELLEHGNLGIATLTGSDGEVIFLDGKAYHANEHKEFIELKGDEKVPYASITNFKASKTFPLQQLSQDDVFAQIKNEMLSENLFSAVKIYGTFKHMHVRMMPAQQPPYTRLIDSARRQPEEKRQDIRGAIVGFFTPELFHGVGSAGFHIHFADDERAYGGHVLDFEVDDVVVEIQNFETFQQHFPVNNETFVKAKIDYKDVAEEIREAE”, for which the protein production entry is “not failed”. As to “MTNWLIAYQGEPGAYSEIAALRFGEPLPCESFDDVFSAVTEQKADYAVIPIENSLGGSIHQNYDLLLRRPVVILAETFVKVEHCLLGLPGASVETATKAMSHPQALVQCHNFFATHPQIRAEAAYDTAGSAKMVAESRDKSALAIASKRAGELYGLDILKENLADEEWNITRFFCIAHENN”, the protein production result is listed as “not failed”. With “MTPHKQLILGGEQAFVGNVASGDFKNRPCPSDLGDIPGTVNPPEGRNPSQDFGQRWDWIQLNAEHMKFSSVSEEKPGLLAPPAQPLTKMFQGAWLCWASLLLLVRVTQPCPVGCDCFDRKIFCSDEQLAAIPLDIPSHVTDIVFVETSFTTVGTRAFSGSPNLTKVVFLNTRVHHLEPDAFGGLPRLEDLEVTGSPFSNLSANIFSNLSSLGKLTLDFNRLAALPEDLFHHMDTLESLQLQGNQLQTLPGRLFQSLRYLRTLNLAQNLLTQLPKGMFQSLSSLQILKLSDNMFARLPEGVLSNLGSLQELFLDSNAITELSPHLFSHLLSLEKLWLQHNAISLLPVSAFSSLRNLTFLNLKDNALRTLPAGLFTHNPGLLHLSLSYNQLETVPEGSFANLRKLASLTLSHNAITHLPENVFRNLEQLVKLSLDSNNLTVLHPTLFHNLSKLQLLDLSRNQLTMLPGGIFDTNYDLFNLALLGNPWQCDCRLSYLTSWLRLYNDRIFNTHTFCAGPAYLKGQLVPNLKQEQLVCPGNPGQLGLDDREPAGSWDLAVEGRAAHRQCIYGNPEGTVLLACEEAQCRWLNIQLSSREGSDVTAMAYNSSQEWELRSTCGSVRVTVSIEAQAAGP”, the protein production result is reported as “failed”. Under “MTPMKTYDLIVIGTGPGGYHAAIRAAQLGLKVLAVEAGEVGGVCLNVGCIPTKALLHAAETLHHLKVAEGFGLKAKPELDLKKLGGWRDQVVKKLTGGVGTLLKGNGVELLRGFARLVGPKEVEVGGERYGAKSLILATGSEPLELKGFPFGEDVWDSTRALKVEEGLPKRLLVIGGGAVGLELGQVYRRLGAEVTLIEYMPEILPQGDPETAALLRRALEKEGIRVRTKTKAVGYEKKKDGLHVRLEPAEGGEGEEVVVDKVLVAVGRKPRTEGLGLEKAGVKVDERGFIRVNARMETSVPGVYAIGDAARPPLLAHKAMREGLIAAENAAGKDSAFDYQVPSVVYTSPEWAGVGLTEEEAKRAGYKVKVGKFPLAASGRALTLGGAEGMVKVVGDEETDLLLGVFIVGPQAGELIAEAALALEMGATLTDLALTVHPHPTLSESLMEAAEAFHKQAIHILNR” stands “not failed”; under “MTPNKEDYLKCIYEIGIDLHKITNKEIAARMQVSPPAVTEMIKRMKSENLILKDKECGYLLTDLGLKLVSELYRKHRLIEVFLVHHLDYTSDQIHEEAEVLEHTVSDLFVERLDKLLGFPKTCPHGGTIPAKGELLVEINNLPLADIKEAGAYRLTRVHDSFDILHYLDKHSLHIGDQLQVKQFDGFSNTFTILSNDEDLQVNMDIAKQLYVEKIN”, “not failed”. Take “MTPNYLDIAFLAVLGLFTLRGLFRGLVEEVAGLVGVIGGFWLANRHHADAAAYVGRVVEDPAWVGVLSYVVVFLGVLLVVSIVARIIRKLLVLSFAGWLDHLAGGAVGVAKGVIICSILLAVLMHFLPDASFVRDSRVIPHLAKVTSFIKGYLPQQIVN”: the protein production result is on record as “failed”.
